In patent US20100209945A1 one finds SPR reaction value data, which are given here for 1 molecule.

This assay has as its target the different types of antibodies (different animal originated antibodies of Example 2). Kind of assay: SPR (Biacore 3000), hybrid on CM-5 chip, antibody in solution. Background: Surface plasmon resonance follows binding to a sensor surface in real time, without labels.

In the case of RTYRTYRTYRTYKKKG (C-terminal NH(CH2CH2O)nCH2CH2CO-Cys-NH2 (PEG linker and cysteine amide)), the SPR reaction value is < 200 RU.
